Experimental data taken from the supplement of paper PMC10126150.
± gives the standard deviation of the averaged measurements.

Test system: ATP
Experiment: switch fluorescence ratio, 500 uM ATP over buffer (Cy3 cluster intensity, sum of 5 cycles each) (fold (ratio)); higher = stronger signal-on switching upon ATP binding; sequences stand for … in TCGTCGGCAGCGTCAGATGTGTATAAGAGACAGTTTTTTTTTTTTTTTTTTTTTTTTT…TC
Conditions: aptamer strand: ATP DNA aptamer (quencher-CACCTGGGGGAGTATTGCGGAGGAAGG + anchor), 100 nM annealed; ATP concentration: 500 uM
Procedure, shortened: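 Five buffer/ATP imaging cycles were run on Cy3-labelled switching-strand clusters on a modified Illumina MiSeq flow-cell, with NaOH stripping and re-annealing between cycles. In each cycle, clusters annealed to 100 nM quencher-labelled ATP aptamer were imaged in selection buffer, then after 15 min with 500 uM ATP at 22 °C. Per cluster, the fluorescence ratio is summed target-cycle over summed buffer-cycle Cy3 intensity, averaged per switch-domain sequence. Only clusters within 100-1000 RFU were kept.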
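Also: ATP exposure 15 min at 22 °C before imaging.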

Row | Sequence | switch fluorescence ratio
1 | AGTACGGGGA | 1.04 ± 0.053
2 | AGTACTGCGA | 1.05 ± 0.035
3 | AGTAGAGGAC | 1.01 ± 0.045
4 | AGTAGCATTC | 1.724 ± 0.013
5 | AGTAGCGGTC | 1.02 ± 0.057
6 | AGTAGCTTTT | 0.997 ± 0.016
7 | AGTAGGAGT | 0.998 ± 0.033
8 | AGTAGGGAGT | 0.9784 ± 0.0094
9 | AGTAGGGGGT | 1.01 ± 0.022
10 | AGTAGGGTCC | 1.03 ± 0.029
11 | AGTAGGGTGC | 1.07 ± 0.12
12 | AGTAGGGTTT | 0.9932 ± 0.0097
13 | AGTAGGTGGC | 1 ± 0.052
14 | AGTAGTGTTG | 1.01 ± 0.068
15 | AGTAGTTTTG | 0.98 ± 0.014
16 | AGTATCAGAA | 1 ± 0.042
17 | AGTATCCCTA | 0.998 ± 0.021
18 | AGTATGAGTA | 1.015 ± 0.0088
19 | AGTATGGTGC | 0.991 ± 0.029
20 | AGTATTACGG | 0.9989 ± 0.0088
21 | AGTATTGGGC | 1.008 ± 0.01
22 | AGTATTTATT | 1 ± 0.03

Row | Sequence | switch fluorescence ratio
23 | AGTCAACCGG | 1.03 ± 0.034
24 | AGTCACTTAG | 1.05 ± 0.015
25 | AGTCAGAGTA | 0.9821 ± 0.004
26 | AGTCATTTTA | 0.999 ± 0.028
27 | AGTCCGGACC | 0.967 ± 0.026
28 | AGTCCGGGGT | 1.04 ± 0.025
29 | AGTCCTAGGT | 1.03 ± 0.022
30 | AGTCCTTATT | 0.977 ± 0.021
31 | AGTCGGGATG | 0.963 ± 0.035
32 | AGTCGGGTTC | 0.973 ± 0.032
33 | AGTCGTCACG | 0.9926 ± 0.0099
34 | AGTCTAAGGG | 0.993 ± 0.013
35 | AGTCTCTGGG | 0.974 ± 0.024
36 | AGTCTGAAGA | 0.987 ± 0.036
37 | AGTCTGCCGG | 1.01 ± 0.028
38 | AGTCTGCGCG | 1.002 ± 0.007
39 | AGTCTGTTTC | 0.999 ± 0.024
40 | AGTCTTAGCA | 0.991 ± 0.049
41 | AGTGAATGGA | 0.991 ± 0.024
42 | AGTGAATTTT | 0.988 ± 0.064
43 | AGTGACACCT | 1.15 ± 0.054
44 | AGTGACCCCT | 1.06 ± 0.035

Row | Sequence | switch fluorescence ratio
45 | AGTGACGCTC | 1.08 ± 0.024
46 | AGTGACGTAC | 1.77 ± 0.075
47 | AGTGAGCTGG | 0.9733 ± 0.0031
48 | AGTGATAAGT | 0.969 ± 0.015
49 | AGTGATGTTC | 0.976 ± 0.016
50 | AGTGCAGGTG | 2.438 ± 0.015
51 | AGTGCGGGCG | 0.9895 ± 0.003
52 | AGTGCGGGGC | 1.07 ± 0.013
53 | AGTGCGTTTA | 1 ± 0.014
54 | AGTGCTGTGC | 0.997 ± 0.012
55 | AGTGCTTTTG | 0.978 ± 0.018
56 | AGTGCTTTTT | 1.01 ± 0.012
57 | AGTGGAATGC | 1.12 ± 0.032
58 | AGTGGAATTC | 1.04 ± 0.012
59 | AGTGGACGGG | 0.994 ± 0.023
60 | AGTGGCATGC | 0.985 ± 0.023
61 | AGTGGGAAGG | 0.956 ± 0.021
62 | AGTGGGAATG | 0.9595 ± 0.0078
63 | AGTGGGACGC | 1 ± 0.044
64 | AGTGGGAGGG | 1 ± 0.02
65 | AGTGGGAGTT | 1.002 ± 0.0081
66 | AGTGGGGCCA | 1.03 ± 0.044

Row | Sequence | switch fluorescence ratio
67 | AGTGGGGGGA | 1.02 ± 0.028
68 | AGTGGGGTG | 1.03 ± 0.026
69 | AGTGGGGTGG | 0.982 ± 0.043
70 | AGTGGGTAAG | 0.9869 ± 0.0085
71 | AGTGGGTTGG | 0.99 ± 0.014
72 | AGTGGTATGA | 1.01 ± 0.048
73 | AGTGGTGAGG | 0.983 ± 0.016
74 | AGTGGTTTTT | 0.9946 ± 0.0055
75 | AGTGTACGGG | 1.083 ± 0.0077
76 | AGTGTACTCG | 1.04 ± 0.056
77 | AGTGTAGGGG | 1.02 ± 0.028
78 | AGTGTATACT | 0.9886 ± 0.0021
79 | AGTGTGAGCT | 1 ± 0.037
80 | AGTGTGGGCT | 1.04 ± 0.021
81 | AGTGTGGGGC | 1.03 ± 0.0097
82 | AGTGTGGTTA | 1.005 ± 0.01
83 | AGTGTGTGGC | 1.01 ± 0.016
84 | AGTGTTAGGA | 1.02 ± 0.011
85 | AGTGTTGTAT | 1.05 ± 0.044
